Measurements published in PMC10786891, “Massively parallel profiling of RNA-targeting CRISPR-Cas13d”.

T1: EsCas13d, nuclease-dead (Eubacterium siraeum, UniProt B0MS50, R295A;H300A;R849A;H854A)
T1 sequence: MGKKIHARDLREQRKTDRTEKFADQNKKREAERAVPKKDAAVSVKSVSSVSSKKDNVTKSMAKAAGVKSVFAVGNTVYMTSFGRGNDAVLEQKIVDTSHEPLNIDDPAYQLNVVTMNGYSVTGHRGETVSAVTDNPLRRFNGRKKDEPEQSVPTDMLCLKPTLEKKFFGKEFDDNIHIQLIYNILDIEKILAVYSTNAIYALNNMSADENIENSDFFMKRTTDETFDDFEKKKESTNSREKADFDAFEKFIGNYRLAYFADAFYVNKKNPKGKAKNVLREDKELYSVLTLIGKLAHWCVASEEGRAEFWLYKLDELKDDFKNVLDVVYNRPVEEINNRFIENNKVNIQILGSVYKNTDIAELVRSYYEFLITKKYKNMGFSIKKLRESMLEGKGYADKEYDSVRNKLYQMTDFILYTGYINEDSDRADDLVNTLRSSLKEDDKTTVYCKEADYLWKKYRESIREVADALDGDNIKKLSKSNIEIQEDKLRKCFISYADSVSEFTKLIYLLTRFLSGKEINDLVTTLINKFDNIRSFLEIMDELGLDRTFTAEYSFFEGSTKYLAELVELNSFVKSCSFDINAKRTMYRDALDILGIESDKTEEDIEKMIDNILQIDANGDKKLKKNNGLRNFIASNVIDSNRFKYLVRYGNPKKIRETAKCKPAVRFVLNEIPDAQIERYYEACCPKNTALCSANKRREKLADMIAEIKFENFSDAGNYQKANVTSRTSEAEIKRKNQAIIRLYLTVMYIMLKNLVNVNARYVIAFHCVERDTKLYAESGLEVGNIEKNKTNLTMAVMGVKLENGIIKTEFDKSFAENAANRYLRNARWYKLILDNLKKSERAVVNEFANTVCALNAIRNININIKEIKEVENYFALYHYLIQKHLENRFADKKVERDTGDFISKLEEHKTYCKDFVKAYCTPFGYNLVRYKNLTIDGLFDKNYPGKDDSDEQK


target: T1, EsCas13d, nuclease-dead; experiment: crRNA (strand 1, pre-loaded); Mg2+; 40 mM Tris-HCl pH 7.5, 150 mM NaCl, 6 mM MgCl2, 1 mM DTT, 0.1% Tween-20, 0.2 mg/ml BSA; 25 C; 10 min per concentration, then washed; details: tags: His6-TwinStrep-SUMO cleaved; N-terminal SNAP kept (SNAP-Surface 488); label: 3' end held by stalled T7 RNA polymerase

Row | Binder | Kd [nM]
1 | target 1 G12U,U19A (mixed) RNA 1: CACCCGUGCAAAAAUGCAGGGGUCUAAAACUGAGCGGAUAACCUCUCUAUGG RNA 2: GGGAAUGGAUCCACAUCUACGAAUUCGUACCAAAGAGAGUUUAUCCGCUCACCGAGAUCGGAAGAGCACACGU | 52 ± 10
2 | target 1 C6A,G15A (mixed) RNA 1: CACCCGUGCAAAAAUGCAGGGGUCUAAAACUGAGCGGAUAACCUCUCUAUGG RNA 2: GGGAAUGGAUCCACAUCUACGAAUUCGUACCAUAGAAAGGUUAUCAGCUCACCGAGAUCGGAAGAGCACACGU | 11.9 ± 0.5
3 | target 1 insG 3' of 20,insU 3' of 2 (mixed) RNA 1: CACCCGUGCAAAAAUGCAGGGGUCUAAAACUGAGCGGAUAACCUCUCUAUGG RNA 2: GGGAAUGGAUCCACAUCUACGAAUUCGUACCAGUAGAGAGGUUAUCCGCUCUACCGAGAUCGGAAGAGCACACGU | ~60
4 | target 1 A1G,A16C (mixed) RNA 1: CACCCGUGCAAAAAUGCAGGGGUCUAAAACUGAGCGGAUAACCUCUCUAUGG RNA 2: GGGAAUGGAUCCACAUCUACGAAUUCGUACCAUAGCGAGGUUAUCCGCUCGCCGAGAUCGGAAGAGCACACGU | 36 ± 4
5 | target 1 insU 3' of 22,insA 3' of 8 (mixed) RNA 1: CACCCGUGCAAAAAUGCAGGGGUCUAAAACUGAGCGGAUAACCUCUCUAUGG RNA 2: GGGAAUGGAUCCACAUCUACGAAUUCGUACUCAUAGAGAGGUUAUACCGCUCACCGAGAUCGGAAGAGCACACGU | 58 ± 5
6 | target 1 A1U,C22A (mixed) RNA 1: CACCCGUGCAAAAAUGCAGGGGUCUAAAACUGAGCGGAUAACCUCUCUAUGG RNA 2: GGGAAUGGAUCCACAUCUACGAAUUCGUAACAUAGAGAGGUUAUCCGCUCUCCGAGAUCGGAAGAGCACACGU | 12.1 ± 0.9
7 | target 1 C2A,U8G (mixed) RNA 1: CACCCGUGCAAAAAUGCAGGGGUCUAAAACUGAGCGGAUAACCUCUCUAUGG RNA 2: GGGAAUGGAUCCACAUCUACGAAUUCGUACCAUAGAGAGGUUAGCCGCUAACCGAGAUCGGAAGAGCACACGU | 19.4 ± 1.3
8 | target 1 insU 3' of 1,insG 3' of 1 (mixed) RNA 1: CACCCGUGCAAAAAUGCAGGGGUCUAAAACUGAGCGGAUAACCUCUCUAUGG RNA 2: GGGAAUGGAUCCACAUCUACGAAUUCGUACCAUAGAGAGGUUAUCCGCUCAUGCCGAGAUCGGAAGAGCACACGU | 11.6 ± 1
9 | target 1 insA 3' of 22,insC 3' of 11 (mixed) RNA 1: CACCCGUGCAAAAAUGCAGGGGUCUAAAACUGAGCGGAUAACCUCUCUAUGG RNA 2: GGGAAUGGAUCCACAUCUACGAAUUCGUACACAUAGAGAGGUCUAUCCGCUCACCGAGAUCGGAAGAGCACACGU | 60 ± 19
10 | target 1 A1U,A16C (mixed) RNA 1: CACCCGUGCAAAAAUGCAGGGGUCUAAAACUGAGCGGAUAACCUCUCUAUGG RNA 2: GGGAAUGGAUCCACAUCUACGAAUUCGUACCAUAGCGAGGUUAUCCGCUCUCCGAGAUCGGAAGAGCACACGU | 37 ± 4
11 | target 1 G17U,C21A (mixed) RNA 1: CACCCGUGCAAAAAUGCAGGGGUCUAAAACUGAGCGGAUAACCUCUCUAUGG RNA 2: GGGAAUGGAUCCACAUCUACGAAUUCGUACAAUAUAGAGGUUAUCCGCUCACCGAGAUCGGAAGAGCACACGU | 40 ± 7
12 | target 1 insA 3' of 22,insG 3' of 18 (mixed) RNA 1: CACCCGUGCAAAAAUGCAGGGGUCUAAAACUGAGCGGAUAACCUCUCUAUGG RNA 2: GGGAAUGGAUCCACAUCUACGAAUUCGUACACAUAGGAGAGGUUAUCCGCUCACCGAGAUCGGAAGAGCACACGU | 59 ± 13
13 | target 1 insC 3' of 22,insA 3' of 21 (mixed) RNA 1: CACCCGUGCAAAAAUGCAGGGGUCUAAAACUGAGCGGAUAACCUCUCUAUGG RNA 2: GGGAAUGGAUCCACAUCUACGAAUUCGUACCCAAUAGAGAGGUUAUCCGCUCACCGAGAUCGGAAGAGCACACGU | 20.7 ± 2.3
14 | target 1 insU 3' of 1,insC 3' of 1 (mixed) RNA 1: CACCCGUGCAAAAAUGCAGGGGUCUAAAACUGAGCGGAUAACCUCUCUAUGG RNA 2: GGGAAUGGAUCCACAUCUACGAAUUCGUACCAUAGAGAGGUUAUCCGCUCAUCCCGAGAUCGGAAGAGCACACGU | 11.6 ± 0.6
15 | target 1 C22A (mixed) RNA 1: CACCCGUGCAAAAAUGCAGGGGUCUAAAACUGAGCGGAUAACCUCUCUAUGG RNA 2: GGGAAUGGAUCCACAUCUACGAAUUCGUAACAUAGAGAGGUUAUCCGCUCACCGAGAUCGGAAGAGCACACGU | 13.5 ± 0.7
16 | target 1 C4G,C22A (mixed) RNA 1: CACCCGUGCAAAAAUGCAGGGGUCUAAAACUGAGCGGAUAACCUCUCUAUGG RNA 2: GGGAAUGGAUCCACAUCUACGAAUUCGUAACAUAGAGAGGUUAUCCGGUCACCGAGAUCGGAAGAGCACACGU | 5.9 ± 0.4
17 | target 1 complement block 4-8 (mixed) RNA 1: CACCCGUGCAAAAAUGCAGGGGUCUAAAACUGAGCGGAUAACCUCUCUAUGG RNA 2: GGGAAUGGAUCCACAUCUACGAAUUCGUACCAUAGAGAGGUUAAGGCGUCACCGAGAUCGGAAGAGCACACGU | 9.57 ± 0.27
18 | target 1 U3A,C4G (mixed) RNA 1: CACCCGUGCAAAAAUGCAGGGGUCUAAAACUGAGCGGAUAACCUCUCUAUGG RNA 2: GGGAAUGGAUCCACAUCUACGAAUUCGUACCAUAGAGAGGUUAUCCGGACACCGAGAUCGGAAGAGCACACGU | 5.74 ± 0.33
19 | target 1 U3A,A16G (mixed) RNA 1: CACCCGUGCAAAAAUGCAGGGGUCUAAAACUGAGCGGAUAACCUCUCUAUGG RNA 2: GGGAAUGGAUCCACAUCUACGAAUUCGUACCAUAGGGAGGUUAUCCGCACACCGAGAUCGGAAGAGCACACGU | 34.3 ± 2.9
20 | target 1 insG 3' of 22,insU 3' of 1 (mixed) RNA 1: CACCCGUGCAAAAAUGCAGGGGUCUAAAACUGAGCGGAUAACCUCUCUAUGG RNA 2: GGGAAUGGAUCCACAUCUACGAAUUCGUACGCAUAGAGAGGUUAUCCGCUCAUCCGAGAUCGGAAGAGCACACGU | 31 ± 4
21 | target 1 A16U,C21U (mixed) RNA 1: CACCCGUGCAAAAAUGCAGGGGUCUAAAACUGAGCGGAUAACCUCUCUAUGG RNA 2: GGGAAUGGAUCCACAUCUACGAAUUCGUACUAUAGUGAGGUUAUCCGCUCACCGAGAUCGGAAGAGCACACGU | 11.7 ± 1.4
22 | target 1 del12,del13 (mixed) RNA 1: CACCCGUGCAAAAAUGCAGGGGUCUAAAACUGAGCGGAUAACCUCUCUAUGG RNA 2: GGGAAUGGAUCCACAUCUACGAAUUCGUACCAUAGAGAUUAUCCGCUCACCGAGAUCGGAAGAGCACACGU | 18.6 ± 1.8
23 | target 1 G12A,A14G (mixed) RNA 1: CACCCGUGCAAAAAUGCAGGGGUCUAAAACUGAGCGGAUAACCUCUCUAUGG RNA 2: GGGAAUGGAUCCACAUCUACGAAUUCGUACCAUAGAGGGAUUAUCCGCUCACCGAGAUCGGAAGAGCACACGU | 41 ± 6
24 | target 1 insA 3' of 22,insC 3' of 12 (mixed) RNA 1: CACCCGUGCAAAAAUGCAGGGGUCUAAAACUGAGCGGAUAACCUCUCUAUGG RNA 2: GGGAAUGGAUCCACAUCUACGAAUUCGUACACAUAGAGAGGCUUAUCCGCUCACCGAGAUCGGAAGAGCACACGU | 20.1 ± 1.2
25 | target 1 A16C (mixed) RNA 1: CACCCGUGCAAAAAUGCAGGGGUCUAAAACUGAGCGGAUAACCUCUCUAUGG RNA 2: GGGAAUGGAUCCACAUCUACGAAUUCGUACCAUAGCGAGGUUAUCCGCUCACCGAGAUCGGAAGAGCACACGU | 31 ± 2.7
26 | target 1 insA 3' of 12,insA 3' of 10 (mixed) RNA 1: CACCCGUGCAAAAAUGCAGGGGUCUAAAACUGAGCGGAUAACCUCUCUAUGG RNA 2: GGGAAUGGAUCCACAUCUACGAAUUCGUACCAUAGAGAGGAUUAAUCCGCUCACCGAGAUCGGAAGAGCACACGU | 32 ± 7
27 | target 1 U8C,A16C (mixed) RNA 1: CACCCGUGCAAAAAUGCAGGGGUCUAAAACUGAGCGGAUAACCUCUCUAUGG RNA 2: GGGAAUGGAUCCACAUCUACGAAUUCGUACCAUAGCGAGGUUACCCGCUCACCGAGAUCGGAAGAGCACACGU | 77 ± 5
28 | target 1 insG 3' of 22,insG 3' of 1 (mixed) RNA 1: CACCCGUGCAAAAAUGCAGGGGUCUAAAACUGAGCGGAUAACCUCUCUAUGG RNA 2: GGGAAUGGAUCCACAUCUACGAAUUCGUACGCAUAGAGAGGUUAUCCGCUCAGCCGAGAUCGGAAGAGCACACGU | 26.6 ± 2.1
